Among the data in article PMC6625990, “Structural underpinnings of Ric8A function as a G-protein α-subunit chaperone and guanine-nucleotide exchange factor” (Nature Communications, 2019) are Kd values, retold here.

Sequences and labels used below:
B1: bovine Ric8A1–492 [bovine] / Gαt333–350 [modified: biotin on the N-terminus (in the BLI assays); biotin on the N-terminus (in the BLI assays)] [not stated] (parent)
chain 1: MEPRAVADALETGEEDVVMEALRAYNRENSQSFTFDDAQQEDRKRLAKLLVSVLEQGLPPSRRVIWLQSIRILSRDRSCLDSFTSRRSLQALACYAGISASQGSVPEPLNMDVVLESLKCLCNLVLSSPVAQALAAEAGLVVRLAERVGLCRQSSFPHDVQFFDLRLLFLLTALRTDVRQQLFQELQGVRLLTRALELTLGMTEGERHPELLPPQETERAMEILKVLFNITFDSIKREVDEEDAALYRHLGTLLRHCVMLAAAGDRTEELHGHAVNLLGNLPVKCLDVLLTLEPHEGSLEFLGVNMDVIRVLLSFMEKRLHQTHRLKESVAPVLSVLTECARMHRPARKFLKAQVLPPLRDVRTRPEVGELLRNKLVRLMTHLDTDVKRVAAEFLFVLCSESVPRFIKYTGYGNAAGLLAARGLMAGGRPEGQYSEDEDTDTDEYKEAKASINPVTGRVEEKPPNPMEGMTEEQKEHEAMKLVNMFDKLSRH
chain 2: DAVTDIIIKENLKDCGLF

The variants in experiment [1] derive from B1. Kind of experiment: BLI (steady-state). To be noted: with Gαt333–350 [modified: biotin on the N-terminus (in the BLI assays).
The variants in experiment [2] derive from B1. Put plainly: BLI (steady-state binding curve). To be noted: with Gαt333–350 [modified: biotin on the N-terminus (in the BLI assays), biotinylated Gαt333–350 coupled to a streptavidin biosensor.

For orientation: Kd means the equilibrium constant for the complex coming apart. As to chain 1 F169R, the Kd in experiment [1] is 1800 nM; in experiment [2] it was 1900 nM.
For chain 1 A173W, in that order: > 10000 nM and > 10000 nM.
